Source: patent US20230272088A1 (SYNTHEKINE, published 2023)
Blank lines part the entries; values can stand above or below the binder they belong to.

How the values were obtained:
[1] = target: T1, extracellular domain of mIFNGR1 (mouse, UniProt P15261 26-254, conjugated to Alexa647 (site not stated)); test: flow cytometry
T1 construct: Origin and tags of the murine antigen are not described; UniProt P15261 residues 26-254; also called mIFNGR1-ECD; murine IFNGR1 ECD
T1 sequence: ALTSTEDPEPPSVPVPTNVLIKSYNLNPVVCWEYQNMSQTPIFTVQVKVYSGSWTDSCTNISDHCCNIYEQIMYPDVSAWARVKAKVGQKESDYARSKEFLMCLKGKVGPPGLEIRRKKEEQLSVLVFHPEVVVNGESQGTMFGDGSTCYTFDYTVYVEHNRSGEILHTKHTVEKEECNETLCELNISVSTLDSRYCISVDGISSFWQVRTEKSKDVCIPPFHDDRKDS

[2] = target: T2, extracellular domain of hIFNGR1 (human, UniProt P15260 18-245, conjugated to Alexa647 (site not stated)); test: flow cytometry, yeast-displayed VHH, 100 nM Alexa647-conjugated antigen
T2 construct: UniProt P15260 residues 18-245; also called hIFNGR1-ECD; human IFNGR1 ECD
T2 sequence: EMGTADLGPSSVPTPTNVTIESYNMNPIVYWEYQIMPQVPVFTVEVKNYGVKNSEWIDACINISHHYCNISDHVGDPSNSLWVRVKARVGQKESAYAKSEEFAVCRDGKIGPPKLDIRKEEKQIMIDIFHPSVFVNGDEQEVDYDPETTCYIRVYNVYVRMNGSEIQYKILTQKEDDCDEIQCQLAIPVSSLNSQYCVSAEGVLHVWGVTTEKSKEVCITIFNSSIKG
Protocol: (§1) Binding of individual VHH to human and murine antigen was tested by flow cytometry. Briefly, 2E5 yeast cells expressing a single sdAb clone were added to each well of a 96 well plate. The first plate was incubated with 100 nM of human antigen conjugated to Alexa647 whereas the second plate was incubated with 100 nM of murine antigen conjugated to Alexa647. Yeast cells were washed 3 times with PBS containing 1% bovine serum albumin. Yeast cells were analyzed using flow cytometry and clones showing a mean fluorescence intensity of greater than 1000 were considered as binding molecules. Specificity of sdAbs was confirmed by incubating yeast cells with a irrelevant protein conjugated to Alexa647. Positive clones were sequenced, and sequences analyzed to identify unique clonotypes.

[3] = target: T2, extracellular domain of hIFNGR1; test: flow cytometry
[4] = target: T1, extracellular domain of mIFNGR1; test: flow cytometry, yeast-displayed VHH, 100 nM Alexa647-conjugated antigen
Protocol: as §1

binding result [1]: binds
binding result [2]: binds
B1: DR907 (VHH)
VHH: EVQLVESGGGLVQAGGSLRLSCAASGRTFSNYAMGWFRQAPGNEREFVAAINWNIGSTYYADSVKGRFTISRDNAKNTVYLQMNSLKPEDTAVYYCGAVWPTGRLRVDSEYDYWGQGTQVTVSS
notes: also called anti-IFNGR1 sdAb VHH DR907

binding result [3]: binds
binding result [1]: binds
B2: DR908 (VHH)
VHH: EVQLVESGGGLVQAGGSLRVTCAASGRTFTSLAMGWFRQAPGKEREFVAAISRSGGSTDYADSVKGRFFISRDNAKSTLYLQMSSLKPEDTAVYYCAARDYSTLQYYNEYEYSDWGQGTQVTVSS
notes: also called anti-IFNGR1 sdAb VHH DR908

binding result [3]: binds
binding result [4]: binds
B3: DR903 (VHH)
VHH: EVQLVESGGGLVQAGGSLRLSCAASGRIASDYTRGWFRQAPGKEREFVAAIIRSVGDSYYADSVKGRFTISIDNAENTVYLQMNSLKPEDTAVYYCAVGGHLYYGSRWRYPASYDYWGQGTQVTVSS
notes: also called anti-IFNGR1 sdAb VHH DR903
